Laboratory results: patent US20120220492A1

Tests used:
[1] = target: antibody against c-kit; experiment: cell-based or functional assay
[2] = target: antibody against CD29; experiment: cell-based or functional assay

Substance	transduction efficiency on MO7E cells [1] [fold]	transduction efficiency on MO7E cells (fold higher than wildtype) [1]	transgene expression ([1]; scale: fold higher than virus with wildtype capsid)	transgene expression ([1]; scale: times higher than virus with wildtype capsid)	infectious titers on Jurkat cells (GFP positive cells by FACS) ([2]; scale: times higher than virus with a wildtype capsid)	infectivity on MO7E cells (fold lower than the 25% virus) [1]	infectivity on Jurkat cells (fold lower than the 25% virus) [2]
AAV mosaic composed of 25% mutant capsid proteins with a Protein A fragment (Z34C) insertion at position 587 (from UniProt P03135 1-735; P03135 139-735; P03135 203-735; P03135 139-735; P03135 203-735)	10	100	100	100000	2 to 3	–	–
AAV mosaic composed of 50% mutant capsid proteins with a Protein A fragment (Z34C) insertion at position 587 (from UniProt P03135 1-735; P03135 139-735; P03135 203-735; P03135 139-735; P03135 203-735)	–	–	–	–	–	3	2
